{"source": "patent US20140341881", "proteins": {"B1": {"name": "human neutrophil elastase (HNE) (protein)", "chain": "IVGGRRARPHAWPFMVSLQLRGGHFCGATLIAPNFVMSAAHCVANVNVRAVRVVLGAHNLSRREPTRQVFAVQRIFENGYDPVNLLNDIVILQLNGSATINANVQVAQLPAQGRRLGNGVQCLAMGWGLLGRNRGIASVLQELNVTVVTSLCRRSNVCTLVRGRQAGVCFGDSGSPLVCNGLIHGIASFVRGGCASGLYPDAFAPVAQFVNWIDSIIQ"}, "B2": {"name": "human kallikrein 14 (hK14) (protein)", "chain": "IIGGHTCTRSSQPWQAALLAGPRRRFLCGGALLSGQWVITAAHCGRPILQVALGKHNLRRWEATQQVLRVVRQVTHPNYNSRTHDNDLMLLQLQQPARIGRAVRPIEVTQACASPGTSCRVSGWGTISSPIARYPASLQCVNINISPDEVCQKAYPRTITPGMVCAGVPQGGKDSCQGDSGGPLVCRGQLQGLVSWGMERCALPGYPGVYTNLCKYRSWIEETMRDK"}}, "key": {"[1]": {"target": "T1, CFP-TVDYA-YFP-6xHis substrate (peptide G9)", "T1 chain": "GALGGTVDYAGST"}, "[2]": {"target": "T2, CFP-LQRAI-YFP-6xHis substrate (peptide E8)", "T2 chain": "GALGGLQRAIGST"}, "[3]": {"target": "T3, CFP-RVTST-YFP-6xHis substrate (peptide E12)", "T3 chain": "GALGGRVTSTGST"}, "[4]": {"target": "T4, CFP-YQSLN-YFP-6xHis substrate (peptide F10)", "T4 chain": "GALGGYQSLNGST"}, "[5]": {"target": "T5, CFP-TSYLN-YFP-6xHis substrate (peptide D7)", "T5 chain": "GALGGTSYLNGST"}, "[6]": {"target": "T6, CFP-VVMKD-YFP-6xHis substrate (peptide E10)", "T6 chain": "GALGGVVMKDGST"}, "[7]": {"target": "T7, CFP-PDRHM-YFP-6xHis substrate (peptide F3)", "T7 chain": "GALGGPDRHMGST"}, "[8]": {"target": "T8, CFP-NNKLR-YFP-6xHis substrate (peptide E9)", "T8 chain": "GALGGNNKLRGST"}, "[9]": {"target": "T9, CFP-MQVKH-YFP-6xHis substrate (clone E6)", "T9 chain": "GALGGMQVKHGST"}, "[10]": {"target": "T10, CFP-RQTND-YFP-6xHis substrate (peptide C11)", "T10 chain": "GALGGRQTNDGST"}, "[11]": {"target": "T11, CFP-SDKVY-YFP-6xHis substrate (clone C5)", "T11 chain": "GALGGSDKVYGST"}, "[12]": {"target": "T12, CFP-KLKET-YFP-6xHis substrate (clone F5)", "T12 chain": "GALGGKLKETGST"}, "[13]": {"target": "T13, CFP-LSRDN-YFP-6xHis substrate (peptide E7)", "T13 chain": "GALGGLSRDNGST"}, "[14]": {"target": "CFP-GGGGG-YFP"}, "[15]": {"target": "T14, CFP-YQNSS-YFP-6xHis substrate (clone C9)", "T14 chain": "GALGGYQNSSGST"}, "[16]": {"target": "T15, CFP-LSGGR-YFP-6xHis substrate (peptide E2)", "T15 chain": "GALGGLSGGRGST"}, "[17]": {"target": "T16, CFP-PVHLY-YFP-6xHis substrate (clone F12)", "T16 chain": "GALGGPVHLYGST"}, "[18]": {"target": "T17, CFP-QRLRD-YFP-6xHis substrate (peptide F11)", "T17 chain": "GALGGQRLRDGST"}, "[19]": {"target": "T18, CFP-QPNGY-YFP-6xHis substrate (clone F1)", "T18 chain": "GALGGQPNGYGST"}, "[20]": {"target": "T19, CFP-VGSLR-YFP-6xHis substrate (peptide G1)", "T19 chain": "GALGGVGSLRGST"}, "[21]": {"target": "T20, CFP-GHRIN-YFP-6xHis substrate (clone F7)", "T20 chain": "GALGGGHRINGST"}, "[22]": {"target": "T21, CFP-AYGYK-YFP-6xHis substrate (peptide E1)", "T21 chain": "GALGGAYGYKGST"}, "[23]": {"target": "T22, CFP-MQATK-YFP-6xHis substrate (clone F4)", "T22 chain": "GALGGMQATKGST"}, "[24]": {"target": "T23, CFP-AYGLA-YFP-6xHis substrate (clone G5)", "T23 chain": "GALGGAYGLAGST"}, "[25]": {"target": "T24, CFP-RGKTN-YFP-6xHis substrate (peptide D9)", "T24 chain": "GALGGRGKTNGST"}, "[26]": {"target": "T25, CFP-VGLYD-YFP-6xHis substrate (peptide F6)", "T25 chain": "GALGGVGLYDGST"}, "[27]": {"target": "T26, CFP-EAPAK-YFP-6xHis substrate (clone G7)", "T26 chain": "GALGGEAPAKGST"}, "[28]": {"target": "T27, CFP-SAVRP-YFP-6xHis substrate (clone E11)", "T27 chain": "GALGGSAVRPGST"}, "[29]": {"target": "T28, CFP-STKGI-YFP-6xHis substrate (clone G3)", "T28 chain": "GALGGSTKGIGST"}, "[30]": {"target": "T29, CFP-RVDTG-YFP-6xHis substrate (clone D11)", "T29 chain": "GALGGRVDTGGST"}, "[31]": {"target": "T30, CFP-HETLK-YFP-6xHis substrate (clone G11)", "T30 chain": "GALGGHETLKGST"}, "[32]": {"target": "T31, CFP-NQRSS-YFP-6xHis substrate (peptide E5)", "T31 chain": "GALGGNQRSSGST"}, "[33]": {"target": "T32, CFP-TTDLR-YFP-6xHis substrate (clone E4)", "T32 chain": "GALGGTTDLRGST"}}}
{"protein": "B1", "values": [{"measurement": "Kcat/Km", "setting": "[1]", "value": 181000, "unit": "M⁻¹ s⁻¹"}, {"measurement": "Kcat/Km", "setting": "[2]", "value": 209000, "unit": "M⁻¹ s⁻¹"}, {"measurement": "Kcat/Km", "setting": "[3]", "value": 200000, "unit": "M⁻¹ s⁻¹"}, {"measurement": "Kcat/Km", "setting": "[4]", "value": 49000, "unit": "M⁻¹ s⁻¹"}, {"measurement": "Kcat/Km", "setting": "[5]", "value": 90000, "unit": "M⁻¹ s⁻¹"}, {"measurement": "Kcat/Km", "setting": "[6]", "value": 65000, "unit": "M⁻¹ s⁻¹"}]}
{"protein": "B2", "values": [{"measurement": "Kcat/Km", "setting": "[1]", "value": 134000, "unit": "M⁻¹ s⁻¹"}, {"measurement": "kcat/Km", "setting": "[1]", "value": 134000, "unit": "M⁻¹ s⁻¹"}, {"measurement": "Kcat/Km", "setting": "[7]", "value": 243000, "unit": "M⁻¹ s⁻¹"}, {"measurement": "kcat/Km", "setting": "[7]", "value": 243000, "unit": "M⁻¹ s⁻¹"}, {"measurement": "Kcat/Km", "setting": "[8]", "value": 74000, "unit": "M⁻¹ s⁻¹"}, {"measurement": "kcat/Km", "setting": "[8]", "value": 74000, "unit": "M⁻¹ s⁻¹"}, {"measurement": "kcat/Km", "setting": "[9]", "value": 34000, "unit": "M⁻¹ s⁻¹"}, {"measurement": "Kcat/Km", "setting": "[10]", "value": 415000, "unit": "M⁻¹ s⁻¹"}, {"measurement": "kcat/Km", "setting": "[10]", "value": 415000, "unit": "M⁻¹ s⁻¹"}, {"measurement": "kcat/Km", "setting": "[11]", "value": 9000, "unit": "M⁻¹ s⁻¹"}, {"measurement": "kcat/Km", "setting": "[12]", "value": 19000, "unit": "M⁻¹ s⁻¹"}, {"measurement": "Kcat/Km", "setting": "[13]", "value": 127000, "unit": "M⁻¹ s⁻¹"}, {"measurement": "kcat/Km", "setting": "[13]", "value": 127000, "unit": "M⁻¹ s⁻¹"}, {"measurement": "Kcat/Km", "setting": "[2]", "value": 367000, "unit": "M⁻¹ s⁻¹"}, {"measurement": "kcat/Km", "setting": "[2]", "value": 367000, "unit": "M⁻¹ s⁻¹"}, {"measurement": "hydrolysis of fluorescent substrate", "setting": "[14]", "value": "is not hydrolyzed by hK14 (not shown)"}, {"measurement": "kcat/Km", "setting": "[15]", "value": 6000, "unit": "M⁻¹ s⁻¹"}, {"measurement": "Kcat/Km", "setting": "[16]", "value": 207000, "unit": "M⁻¹ s⁻¹"}, {"measurement": "kcat/Km", "setting": "[16]", "value": 207000, "unit": "M⁻¹ s⁻¹"}, {"measurement": "kcat/Km", "setting": "[17]", "value": 7000, "unit": "M⁻¹ s⁻¹"}, {"measurement": "Kcat/Km", "setting": "[18]", "value": 307000, "unit": "M⁻¹ s⁻¹"}, {"measurement": "kcat/Km", "setting": "[18]", "value": 307000, "unit": "M⁻¹ s⁻¹"}, {"measurement": "kcat/Km", "setting": "[19]", "value": 6000, "unit": "M⁻¹ s⁻¹"}, {"measurement": "Kcat/Km", "setting": "[20]", "value": 481000, "unit": "M⁻¹ s⁻¹"}, {"measurement": "kcat/Km", "setting": "[20]", "value": 481000, "unit": "M⁻¹ s⁻¹"}, {"measurement": "kcat/Km", "setting": "[21]", "value": 12000, "unit": "M⁻¹ s⁻¹"}, {"measurement": "Kcat/Km", "setting": "[3]", "value": 26000, "unit": "M⁻¹ s⁻¹"}, {"measurement": "kcat/Km", "setting": "[3]", "value": 26000, "unit": "M⁻¹ s⁻¹"}, {"measurement": "Kcat/Km", "setting": "[22]", "value": 24000, "unit": "M⁻¹ s⁻¹"}, {"measurement": "kcat/Km", "setting": "[22]", "value": 24000, "unit": "M⁻¹ s⁻¹"}, {"measurement": "kcat/Km", "setting": "[23]", "value": 8000, "unit": "M⁻¹ s⁻¹"}, {"measurement": "Kcat/Km", "setting": "[4]", "value": 12000, "unit": "M⁻¹ s⁻¹"}, {"measurement": "kcat/Km", "setting": "[4]", "value": 12000, "unit": "M⁻¹ s⁻¹"}, {"measurement": "kcat/Km", "setting": "[24]", "value": 6000, "unit": "M⁻¹ s⁻¹"}, {"measurement": "Kcat/Km", "setting": "[25]", "value": 80000, "unit": "M⁻¹ s⁻¹"}, {"measurement": "kcat/Km", "setting": "[25]", "value": 80000, "unit": "M⁻¹ s⁻¹"}, {"measurement": "Kcat/Km", "setting": "[5]", "value": 9000, "unit": "M⁻¹ s⁻¹"}, {"measurement": "kcat/Km", "setting": "[5]", "value": 9000, "unit": "M⁻¹ s⁻¹"}, {"measurement": "Kcat/Km", "setting": "[26]", "value": 18000, "unit": "M⁻¹ s⁻¹"}, {"measurement": "kcat/Km", "setting": "[26]", "value": 18000, "unit": "M⁻¹ s⁻¹"}, {"measurement": "Kcat/Km", "setting": "[6]", "value": 15000, "unit": "M⁻¹ s⁻¹"}, {"measurement": "kcat/Km", "setting": "[6]", "value": 15000, "unit": "M⁻¹ s⁻¹"}, {"measurement": "kcat/Km", "setting": "[27]", "value": 8000, "unit": "M⁻¹ s⁻¹"}, {"measurement": "kcat/Km", "setting": "[28]", "value": 5000, "unit": "M⁻¹ s⁻¹"}, {"measurement": "kcat/Km", "setting": "[29]", "value": 20000, "unit": "M⁻¹ s⁻¹"}, {"measurement": "kcat/Km", "setting": "[30]", "value": 15000, "unit": "M⁻¹ s⁻¹"}, {"measurement": "kcat/Km", "setting": "[31]", "value": 9000, "unit": "M⁻¹ s⁻¹"}, {"measurement": "Kcat/Km", "setting": "[32]", "value": 388000, "unit": "M⁻¹ s⁻¹"}, {"measurement": "fold selectivity of cleavage against PK", "setting": "[32]", "value": "27 and 78 fold more selective for hK14 than for hK2 and PK, respectively"}, {"measurement": "fold selectivity of cleavage against hK2", "setting": "[32]", "value": "27 and 78 fold more selective for hK14 than for hK2 and PK, respectively"}, {"measurement": "kcat/Km", "setting": "[32]", "value": 388000, "unit": "M⁻¹ s⁻¹"}, {"measurement": "kcat/Km", "setting": "[33]", "value": 27000, "unit": "M⁻¹ s⁻¹"}]}
